Measured values published in US20190387724A1.

Molecular target: human/mouse chimeric PD-1 protein (humanized PD-1 of B-hPD-1 mice) (human/mouse chimeric)
Assay: flow cytometry on T lymphocytes (CD3+) of F1 generation B-hPD-1 mice

Chain of human/mouse chimeric PD-1 protein (humanized PD-1 of B-hPD-1 mice) (human/mouse chimeric) (chain, as listed by the source mutant limits assumed): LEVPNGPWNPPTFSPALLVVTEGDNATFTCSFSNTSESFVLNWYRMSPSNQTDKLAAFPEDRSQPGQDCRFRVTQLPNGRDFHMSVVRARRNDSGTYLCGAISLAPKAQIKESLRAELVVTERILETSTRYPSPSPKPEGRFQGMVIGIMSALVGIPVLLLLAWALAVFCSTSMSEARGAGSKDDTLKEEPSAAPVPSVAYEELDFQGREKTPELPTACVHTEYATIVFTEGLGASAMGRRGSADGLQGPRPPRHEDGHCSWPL

Substance “anti-human PD-1 antibody hPD-1 FITC (Biolegend, article number 329904)” has a percent of double-positive cells (anti-human PD-1 and anti-mouse CD3) of 92%.
